We go through 1 molecule from PMC9523049, “Structures of Mec1/ATR kinase endogenously stimulated by different genotoxins” (Cell Discovery, 2022).

In the assay the target is T1, Mec1 (yeast homolog of ATR), wild type, activated in vivo by HU or MMS (yeast (endogenous in cultured yeast …, UniProt P38111 1-2368)).
T1 construct: Mec1 kinase, yeast homolog of human ATR, wild type, endogenous; purified together with Ddc2; they may stand in the supplementary file; also called ATR/Mec1; Mec1/ATR kinase; source: endogenously purified from cultured yeast cells treated with HU or MMS
T1 sequence (P38111 whole entry): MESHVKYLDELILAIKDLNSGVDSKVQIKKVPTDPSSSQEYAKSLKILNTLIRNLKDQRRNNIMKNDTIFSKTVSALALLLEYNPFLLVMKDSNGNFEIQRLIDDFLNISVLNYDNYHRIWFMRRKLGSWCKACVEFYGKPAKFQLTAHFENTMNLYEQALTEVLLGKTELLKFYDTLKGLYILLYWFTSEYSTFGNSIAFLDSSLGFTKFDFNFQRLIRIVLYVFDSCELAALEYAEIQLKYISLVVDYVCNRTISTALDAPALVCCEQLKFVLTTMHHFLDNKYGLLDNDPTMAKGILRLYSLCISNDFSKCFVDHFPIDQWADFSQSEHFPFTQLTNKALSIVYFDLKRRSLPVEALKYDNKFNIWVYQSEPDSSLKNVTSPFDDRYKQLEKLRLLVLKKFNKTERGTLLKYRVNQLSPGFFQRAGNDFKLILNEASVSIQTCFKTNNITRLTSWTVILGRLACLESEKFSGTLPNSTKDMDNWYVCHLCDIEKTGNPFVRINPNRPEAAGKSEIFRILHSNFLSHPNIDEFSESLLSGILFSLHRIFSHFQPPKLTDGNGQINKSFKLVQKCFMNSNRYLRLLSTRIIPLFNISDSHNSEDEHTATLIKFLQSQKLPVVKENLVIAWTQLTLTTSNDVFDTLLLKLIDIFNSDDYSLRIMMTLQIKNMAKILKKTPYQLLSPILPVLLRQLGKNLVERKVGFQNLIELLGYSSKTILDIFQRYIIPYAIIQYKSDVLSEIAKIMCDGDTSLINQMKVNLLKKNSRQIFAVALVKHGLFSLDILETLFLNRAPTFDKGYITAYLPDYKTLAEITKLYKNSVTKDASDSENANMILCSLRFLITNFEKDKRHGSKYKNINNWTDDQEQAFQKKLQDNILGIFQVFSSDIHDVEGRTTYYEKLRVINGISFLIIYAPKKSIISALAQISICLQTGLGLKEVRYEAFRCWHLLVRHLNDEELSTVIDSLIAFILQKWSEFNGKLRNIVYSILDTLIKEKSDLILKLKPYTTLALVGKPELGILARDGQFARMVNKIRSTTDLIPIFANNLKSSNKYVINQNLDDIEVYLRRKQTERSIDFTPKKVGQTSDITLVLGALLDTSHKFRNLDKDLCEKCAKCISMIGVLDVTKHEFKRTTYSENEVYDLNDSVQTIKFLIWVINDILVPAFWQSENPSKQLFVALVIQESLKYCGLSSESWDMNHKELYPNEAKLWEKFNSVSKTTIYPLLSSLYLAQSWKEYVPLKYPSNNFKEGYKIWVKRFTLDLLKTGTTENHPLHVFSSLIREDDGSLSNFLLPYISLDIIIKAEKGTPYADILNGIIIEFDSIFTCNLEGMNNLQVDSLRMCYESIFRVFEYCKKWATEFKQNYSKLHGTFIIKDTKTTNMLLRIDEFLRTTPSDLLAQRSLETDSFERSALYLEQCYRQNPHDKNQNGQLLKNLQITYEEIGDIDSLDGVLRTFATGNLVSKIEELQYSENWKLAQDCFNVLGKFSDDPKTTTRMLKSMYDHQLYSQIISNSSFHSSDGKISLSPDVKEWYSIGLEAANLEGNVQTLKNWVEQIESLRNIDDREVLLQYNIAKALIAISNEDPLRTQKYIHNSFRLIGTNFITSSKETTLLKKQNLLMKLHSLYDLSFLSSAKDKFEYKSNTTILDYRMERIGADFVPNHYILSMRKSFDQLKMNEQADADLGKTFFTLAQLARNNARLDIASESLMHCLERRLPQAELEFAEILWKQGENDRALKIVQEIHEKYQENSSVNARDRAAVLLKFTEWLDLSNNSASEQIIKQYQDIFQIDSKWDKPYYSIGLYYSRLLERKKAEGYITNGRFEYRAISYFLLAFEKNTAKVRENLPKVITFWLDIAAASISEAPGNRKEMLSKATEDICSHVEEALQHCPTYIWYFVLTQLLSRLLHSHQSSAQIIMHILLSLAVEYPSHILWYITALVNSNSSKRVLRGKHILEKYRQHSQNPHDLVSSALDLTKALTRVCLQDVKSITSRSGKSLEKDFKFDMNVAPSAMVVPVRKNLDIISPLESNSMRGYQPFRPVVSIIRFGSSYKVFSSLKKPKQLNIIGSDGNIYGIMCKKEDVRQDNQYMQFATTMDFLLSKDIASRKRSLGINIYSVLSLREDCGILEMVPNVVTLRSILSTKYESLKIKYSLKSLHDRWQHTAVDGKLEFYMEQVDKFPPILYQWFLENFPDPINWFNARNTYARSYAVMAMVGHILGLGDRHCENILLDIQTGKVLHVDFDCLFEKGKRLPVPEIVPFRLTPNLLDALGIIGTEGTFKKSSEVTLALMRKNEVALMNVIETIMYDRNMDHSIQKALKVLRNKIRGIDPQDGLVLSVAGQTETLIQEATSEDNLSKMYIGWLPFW
As to the kind of experiment: cryo-EM structure; Mec1-Ddc2 complex endogenously purified from yeast cells treated with HU (HU-Dimer1, HU-Dimer2) or MMS (MMS-Dimer). Conditions: both partners purified.

B1: Ddc2 (yeast homolog of ATRIP) (natural protein, UniProt Q04377 1-747, looked up)
chain: MRRETVGEFSSDDDDDILLELGTRPPRFTQIPPSSAALQTQIPTTLEVTTTTLNNKQSKNDNQLVNQLNKAQGEASMLRDKINFLNIEREKEKNIQAVKVNELQVKHLQELAKLKQELQKLEDEKKFLQMEARGKSKREVITNVKPPSTTLSTNTNTITPDSSSVAIEAKPQSPQSKKRKISDNLLKKNMVPLNPNRIIPDETSLFLESILLHQIIGADLSTIEILNRLKLDYITEFKFKNFVIAKGAPIGKSIVSLLLRCKKTLTLDRFIDTLLEDIAVLIKEISVHPNESKLAVPFLVALMYQIVQFRPSATHNLALKDCFLFICDLIRIYHHVLKVPIHESNMNLHVEPQIFQYELIDYLIISYSFDLLEGILRVLQSHPKQTYMEFFDENILKSFEFVYKLALTISYKPMVNVIFSAVEVVNIITSIILNMDNSSDLKSLISGSWWRDCITRLYALLEKEIKSGDVYNENVDTTTLHMSKYHDFFGLIRNIGDNELGGLISKLIYTDRLQSVPRVISKEDIGMDSDKFTAPIIGYKMEKWLLKLKDEVLNIFENLLMIYGDDATIVNGEMLIHSSKFLSREQALMIERYVGQDSPNLDLRCHLIEHTLTIIYRLWKDHFKQLREEQIKQVESQLIMSLWRFLVCQTETVTANEREMRDHRHLVDSLHDLTIKDQASYYEDAFEDLPEYIEEELKMQLNKRTGRIMQVKYDEKFQEMARTILESKSFDLTTLEEADSLYISMGL
notes: Ddc2, yeast homolog of human ATRIP, endogenous; purified together with Mec1; they may stand in the supplementary file; source: endogenously purified from cultured yeast cells treated with HU or MMS
On to B1, for which the binding result is on record as “binds”.
